Assay results as given in US20220112288A1 (published 2022).
Positions count from the first letter of the chain named.

B1: 75110_06D16A (antibody, V domains shown)
VH: QVQLQQWGAGLLKPSETLSLTCAVYGGSFSGYYWSWIRQPPGKGLEWIGEINHSGSTNYNPSLKSRVTISVVTSKNQFSLKLSSVTAADTAVYYCARVLNWFDPWGQGTLVTVSS
VL: DIQMTQSPSSVSASVGDRVTITCRASQDIADWLAWYQQKPGKAPKLLIYAASSFQSGVPSRFSGSGSGTDFTLTISSLQPEDFATYFCQQANSFPYTFGQGTKLEIK
notes: Tested as clonal hybridoma supernatant of an AlivaMab Mouse Kappa antibody (human variable regions, kappa; detected with anti-mouse Fc)
B2: 75110_08H11A (antibody, V domains shown)
VH: EVQLVESGGGLVQPGGSLRLSCAASGFTFSSYDMHWVRQATGKGLEWVSTIGTAGDTYYPGSVKGRFTISRENAKNSLYLQMNSLRAGDTAVYYCARGGYSYYGMDVWGQGTTVTVSS
VL: EIVLTQSPGTLSLSPGERATLSCGASQSVSSTYLAWYQQKPGQAPRLLIYGASSRATGIPDRFSGSGSGTDFTLTISRLEPEDFAVYYCQQFGSSPFTFGPGTKVDIK
B3: 75110_10L22A (antibody, V domains shown)
VH: B2 VH with S84G, G99N, S101F, M105V
VL: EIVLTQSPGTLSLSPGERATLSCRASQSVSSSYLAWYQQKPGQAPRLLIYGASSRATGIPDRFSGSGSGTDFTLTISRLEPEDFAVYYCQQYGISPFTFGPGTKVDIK
B4: 75110_08H06A (antibody, V domains shown)
VH: B2 VH with S31N, S101D
VL: B2 VL with G24R, V29I, S30T, T32I, Q38R, F92Y
B5: 75110_10N21A (antibody, V domains shown)
VH: B2 VH with A40V, S101Y
VL: B2 VL with G24R, V29F, S30I, T32S, E80D, F92S, S94N, I107V
B6: 75110_08K12A (antibody, V domains shown)
VH: B2 VH with K75E, V92L, G99D, S101Y
VL: B2 VL with G24R, S54N, S94T
B7: 75110_07E04A (antibody, V domains shown)
VH: B2 VH with A24V, N76K, S77F, S101Y
VL: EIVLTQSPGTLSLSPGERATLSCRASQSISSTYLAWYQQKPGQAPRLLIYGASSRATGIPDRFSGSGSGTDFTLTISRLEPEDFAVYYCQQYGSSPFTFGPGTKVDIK
B8: 75110_07J02A (antibody, V domains shown)
VH: EVQLVESGGGLVQPGGSLRLSCAASGFTFSSYWMSWVRQAPGKGLEWVANIKEDGSEKYYVDSVKGRFTISRDNAKNSLYLQMNSLRAEDTAVYYCARDGSYSGYGMDVWGQGTTVTVSS
VL: AIQMTQSPSSLSASVGDRVTITCRASQGIRNDLGWYQQKPGKAPKLLIYAASSLQSGVPSRFSGRGSGTDFALTISSLQPEDFATYYCLLDYNYPYTFGQGTRLEIK
B9: 75110_10K21A (antibody, V domains shown)
VH: EVQLVESGGGLVQPGGSLRLSCAASGFTFSSYWMTWVRQAPGKGLEWVANIKQDGSEKYYVDSVKGRFTISRDNAKNSLYLQMNSLRAEDTAVYYCVRDRYDALDIWGQGTMVTVSS
VL: B8 VL with G34N, R65S, A72T, P80A, L90K, R103K
B10: 75110_08A13A (antibody, V domains shown)
VH: B8 VH with T28I, E53Q, V61M, G100N, S103Y, G104Y
VL: B8 VL with N31D, Y49F, R61S, R65S, A72T, L90H, D91H, R103K
B11: 75110_07N04A (antibody, V domains shown)
VH: QVQLQESGPGLVKPSETLSLTCSVSGVSSTSFYWSWIRQPAGKGLDWIGRIYTSGSTNYNPSLKSRVTMSVDTSKNQFSLKLSSVTAADTAVYYCARDPGYSDAFAIWGQGTMVTVSS
VL: not shown
B12: 75110_09N20A (antibody, V domains shown)
VH: EVQLVESGGGLVQPGGSLRLSCAASGFTFSSYWMSWVRQAPGKGLEWVANINEDGSEKYYVDSVKGRFTISRDNAKNSLYLQMNSLRAEDTAVYYCVREGGQWLALDYWGQGTLVTVSS
VL: B1 VL with D28G, A30S, D31S, F54L, R61S, S76N, F87Y, Y96W, L104V, E105A
B13: 75110_07B16A (antibody, V domains shown)
VH: B1 VH with P40S, H53Q, V72D, N76D, L99I, P104S, T109S
VL: B1 VL with D28G, A30S, D31S, A50D, P80T, E81D, F87Y
B14: 75110_07H07A (antibody, V domains shown)
VH: B12 VH with L4V, N52K, D54E
VL: DIQMTQSPSSVSGSVGDRVTITCRASQGISSWLAWYQQKPGKAPKLLIFGASSLQSGVPSRFSGSGSGTDFTLTISSLQPEDFATYYCQQANSFPWTFGQGTKVQIK
B15: 75110_09G15A (antibody, V domains shown)
VH: B12 VH with S31D, E53Q, Y60S, V93I, Y94F, V97A
VL: B14 VL with G13A, F49Y, S76N, A84T, S93I, Q105E
B16: 75110_07J24A (antibody, V domains shown)
VH: QAQLQESGPGLVKPSETLSLTCTVSGGSISSYYYNWIRQPAGKGLEWIGRIYTSGRTDYNPSLKSRVTMSADTSKNQFSLKLSSVTAADTAVYYCARDEGPTDAFDIWGQGTMVTVSS
VL: DIVMTQTPLSLPVTPGEPASISCRSSQSLLDSDDGNTYLDWYLQKPGQSPHLLIYTLSYRASGVPDRFSGSGSGSDFTLKISRVEAEDVGVYYCMQRIEFPFTFGPGTKVDIK
B17: 75110_08D24A (antibody, V domains shown)
VH: QVQLQESGPGLVKPSETLSLTCTVSGGSISGFYWSWIRQPAGKGLEWIGRIYTSENTNYNPSLKSRVTMSVDTSKNQFSLKLSSVTAADTAVYYCARDREGYYYYGMDVWGQGTTVTVSS
VL: DIQMTQSPSSLSASVGDRVTITCQASQDISNYLNWYQQKPGKAPKLLIYAASNLETGVPSRFSGSGSGTDFTFTISSLQPEDIATYYCQQYDSLPITFGQGTRLEIK
B18: 75110_06G04A (antibody, V domains shown)
VH: QVQLLESGPGLVKPSETLSLTCTVSGGSISSYYWSWIRQPAGKGLEWIGRIYISGSTNYNPSLKSRVTMSIDTSENQFSLNLSSVTAADTAVYYCARELERPYYYGMDVWGQGTTVTVSS
VL: B17 VL with A50N, N53T, S93N, I96L, Q100G, R103K, L104V, I106F
B19: 75110_08F20A (antibody, V domains shown)
VH: QVQLQESGPGLVKPSETLSLTCSVSGGSISTYYWSWIRQPAGKGLEWIGRICTTENTNYNPSLKSRVTMSIDSSKNQFSLKLSSVTAADTAVYYCARDLERLNYYGMDVWGQGATVTVSS
VL: B17 VL with N31K, K42I, A50D, I83F
B20: 75110_06K03A (antibody, V domains shown)
VH: B18 VH with L5Q, S31T, Y52N, I53T, N58T, I71V, E75K, N81K, P102Y
VL: B17 VL with A50Y, N53I, I96L, Q100G, R103K, L104V
B21: 75110_08M20A (antibody, V domains shown)
VH: B17 VH with G8D, G31S, F32Y, T53A, E55G, N56S
VL: B17 VL with N31K, K45N, T85A
B22: 75110_06E14A (antibody, V domains shown)
VH: B17 VH with G31N, F32Y, Y33F, T53S, E55G, G101D
VL: B17 VL with A50G, N53I, S63T
B23: 75110_08G08A (antibody, V domains shown)
VH: B19 VH
VL: B17 VL with K42I, A50D
B24: 75110_01A06A (antibody, V domains shown)
VH: B12 VH with S56N, F68L, Y95F, V97A, A105S, T113A
VL: B14 VL with G13A, T20S, L46I, F49Y, Q105E
notes: Tested as clonal hybridoma supernatant of an AlivaMab Mouse Kappa hybridoma (detected with anti-mouse Fc); Kappa light chain; also called Sib2.1
B25: 75110_02N15A (antibody, V domains shown)
VH: B12 VH with S56N, Y80F, Y95F, V97A, Y108H, T113A
VL: B14 VL with G13A, L46F, F49S, Q105E, I106F
notes: Tested as clonal hybridoma supernatant (AlivaMab Mouse Kappa; anti-mouse Fc detection); also called Sib2.3
B26: 75110_03D16A (antibody, V domains shown)
VH: B12 VH with E53Q, S56G
VL: B14 VL with G13A, A34T, L46F, F49Y, G50A, S67F, Q105E
notes: Tested as clonal hybridoma supernatant (AlivaMab Mouse Kappa; anti-mouse Fc detection); also called Sib2.5

Target: T1, human CD4 on human PBMCs (human, UniProt P01730 26-458)
T1 construct: whole, on cells; the CD4-positive gate was set with the control antibodies OKT4 and RPA-T4; also called hCD4
Assay: FACS, clonal hybridoma supernatant on PBMCs

For B1, the “% CD4 Stain” value was 39.2%.

B1 was tested, and the “gMFI of CD4+” value was 253000 gMFI.

Target: T2, human CD4 on human PBMCs (human, UniProt P01730 26-458)
T2 construct: whole, on cells; also called hCD4
Assay: FACS, clonal hybridoma supernatant on PBMCs

Point of comparison: B9, “% CD4 Stain” value 29%. Against it:
- B2 — lower, 27.1%
- B3 — higher, 34.3%
- B4 — lower, 28.1%
- B5 — higher, 38.3%
- B6 — higher, 34.6%
- B7 — higher, 36.1%
- B8 — higher, 33.4%
- B10 — higher, 30.3%
- B11 — higher, 33.8%
- B12 — higher, 37.5%
- B13 — higher, 37.3%
- B14 — higher, 37.1%
- B15 — higher, 37.3%
- B16 — lower, 28.8%
- B17 — higher, 33.6%
- B18 — higher, 34.8%
- B19 — higher, 33.2%
- B20 — higher, 34%
- B21 — higher, 34.1%
- B22 — higher, 31.7%
- B23 — higher, 32.2%

Point of comparison: B15, “gMFI of CD4+” value 237000 gMFI. Against it:
- B2 — lower, 87000 gMFI
- B3 — lower, 77400 gMFI
- B4 — lower, 88800 gMFI
- B5 — lower, 203000 gMFI
- B6 — lower, 175000 gMFI
- B7 — lower, 141000 gMFI
- B8 — lower, 228000 gMFI
- B9 — lower, 119000 gMFI
- B10 — lower, 140000 gMFI
- B11 — lower, 104000 gMFI
- B12 — lower, 227000 gMFI
- B13 — lower, 189000 gMFI
- B14 — lower, 204000 gMFI
- B16 — lower, 28400 gMFI
- B17 — higher, 332000 gMFI
- B18 — higher, 307000 gMFI
- B19 — higher, 307000 gMFI
- B20 — higher, 320000 gMFI
- B21 — higher, 343000 gMFI
- B22 — lower, 225000 gMFI
- B23 — higher, 324000 gMFI

Target: T3, human CD4 (human, UniProt P01730 26-458)
T3 construct: whole, on cells; also called hCD4
Assay: FACS, clonal hybridoma supernatant on human PBMCs

Point of comparison: B25, “% CD4 Stain” value 39%. Against it:
- B24 — lower, 33.7%
- B26 — lower, 35.6%

Point of comparison: B25, “gMFI of CD4+” value 253000 gMFI. Against it:
- B24 — lower, 115000 gMFI
- B26 — lower, 207000 gMFI
